“Also recorded” adds a separate entry of the source. Each block holds one molecule with its values, some of them ahead of it.
Assays:
breast cancer cells = conditions: co-treatment with cell permeable G7-18NATE peptide, ref [19]; cited from earlier work
full-length Grb7 = test: Analytical ultracentrifugation: dimerisation of full-length Grb7; format: binding, human
Protocol: (§1) Figure 4 Sedimentation equilibrium analysis of the Grb7 SH2 and Grb7. (a) Absorbance at 280 nm verses radius data at sedimentation equilibrium for Grb7 SH2 at an initial loading concentration of 36 μM. The data collected at 14,000 rpm (circles), 16,600 rpm (squares), 24,300 rpm (diamonds) and 28,800 rpm (triangles) were fitted simultaneously using the nonlinear regression program. (b) Absorbance at 280 nm verses radius data at sedimentation equilibrium for Grb7 at an initial loading concentrations of 12 μM. The data collected at 10,000 rpm (circles) and 11,800 rpm (squares) were fitted simultaneously using the nonlinear regression program NONLIN [77]. The solid line represents the calculated fit to a monomer-dimer model. […]
(§2) Grb7 SH2 domain and full-length Grb7 were analysed at loading concentrations of A280 values of 0.1, 0.3 and 0.6. […] Absorption profiles were recorded at 280 and 360 nm with automatic dialysate absorption compensation. The data were recorded in 0.001-cm steps and ten scans were averaged to produce each profile. The system was deemed to be in equilibrium when profiles recorded 4 h apart were identical. The data were analysed by fitting models of association to the absorbance versus radial position distribution using the program NONLIN [48, 49]. […] The density of the buffer solution was calculated to be 1.00379 g/ml using the program […] v1.08 [74].

[1] = target: pY1139 phosphopeptide (ErbB2) (Homo sapiens) (UniProt P04626); conditions: cited from earlier work
[2] = target: the molecule itself; test: AUC; sedimentation equilibrium, 20°C, Grb7 SH2 at an initial loading concentration of 36 μM, 14,000-28,800 rpm, 50 mM MES pH 6.6, 100 mM NaCl, 1 mM DTT; global fit to a monomer-dimer model (NONLIN); dimer to monomers
Grb7 SH2 domain = target: T1, Grb7 SH2 domain (Homo sapiens, UniProt Q14451); test: Analytical ultracentrifugation: dimerisation of Grb7 SH2 domain; format: binding
T1 construct: encoding residues 415-532 of human Grb7; GST (N, cleaved yes); made in house; host or cells: Escherichia coli BL21(DE3).pLysS
Protocol: as §1, §2

Molecule: COc1cccc2c1C(=O)c1c(O)c3c(c(O)c1C2=O)C[C@@](O)(C(=O)CO)C[C@@H]3O[C@H]1C[C@H](N)[C@H](O)[C@H](C)O1 [Doxorubicin]
change of drug EC50 on co-treatment (in words) (breast cancer cells): significant reduction of the drug EC50 value

Molecule: full-length Grb7: Full-length Grb7 (residues 1 – 532)
dimer formation (in words) (full-length Grb7): in the μM range; also recorded: forms dimers in vitro with a similar affinity to that exhibited by the SH2 domain alone; also recorded: same order of magnitude as that obtained for the SH2 domain alone

Molecule: Grb7 SH2 (from UniProt Q14451)
Kd [1]: 2.3 µM

dimer association compared with previous experiments at 4 °C (in words) (Grb7 SH2 domain; 20 °C versus 4 °C, ref [38]): slightly weaker association
dimer formation (in words) (Grb7 SH2 domain; analytical ultracentrifugation): in the μM range
B1: Grb7 SH2 domain (residues 415-532 of human Grb7) (domain or fragment)
chain: GSPASGTSLSAAIHRTQLWFHGRISREESQRLIGQQGLVDGLFLVRESQRNPQGFVLSLCHLQKVKHYLILPSEEEGRLYFSMDDGQTRFTDLLQLVEFHQLNRGILPCLLRHCCTRVAL
notes: first two of the 7 N-terminal residues of the construct, printed as GSPASGT; 15N-labelled (minimal medium with 15NH4Cl) for the NMR titration, unlabelled otherwise; Expected mass 13,672 g/mol; Residues 420-532 are seen in the crystal structure; also called 15N-Grb7 SH2
Kd [2]: 21.8 µM
stoichiometry N [2]: 2

Source: PMC2131756, “Grb7 SH2 domain structure and interactions with a cyclic peptide inhibitor of cancer cell migration and proliferation” (BMC Structural Biology, 2007)
